Assay results taken from PMC11026164 (Nature Nanotechnology, 2024).

Assays:
[1] = ζ-potential / isoelectric point by DLS (Zetasizer); format: physicochemical
Experimental: HD diameter, polydispersity index and ζ-potential were measured using the Zetasizer Nano ZS instrument (Malvern […]) at Sydney Analytical, the University of Sydney. CSIRO samples were measured on a Malvern Instruments Zetasizer Nano instrument ZEN3600 with a 4 mW 633 nm He–Ne gas laser. […] HD diameter and polydispersity index measurements were performed using backscatter (173°) data collection with three repeats of 12–15 measurements per sample. All the samples were analysed in disposable folded capillary cells. […] 1 mg/ml solutions (5 mL total volume) were prepared for each solution. pH was adjusted to pH 3 with 1 M HCl using a pH meter. Images were collected as the pH was raised by the addition of 1 M NaOH. Images show the product solution at each pH. […] Data expressed as the mean ± s.d. (n = 3 independent batches). ζ-potential of each sample was measured using DLS. Data expressed as the mean ± s.d. (n = 3 independent batches).

C57BL/6J mice = test: Oral glucose tolerance test (oGTT); format: in vivo; details: n = 5; for effect of constituents on oGTT AUC: QD 0.6 µg, QD-INS 0.6 µg, 20 IU/kg, CS/GS 10 µg, QD-CS/GS 0.6 µg, 10 µg, insulin alone given orally 100 IU/kg, 15 min before glucose
Experimental: oGTT was performed following a 4-h fast. BG was measured using a handheld glucometer using Accu-Chek proforma strips. Blood was collected following a tail snip. BG was collected prior and for 90 min after an oral bolus of 2 g kg^–1 glucose solution. The AUC was determined based on the mmol l^–1 × min.

[2] = Insulin loading capacity on QDs (14C-INS, dialysis); format: physicochemical
Experimental: Three individual experiments (batches) were performed per group.

[3] = HPLC–MS of released insulin; format: physicochemical; details: release by hydrolysis for 28 days at 23 °C
Experimental: Cleavage of CS/GS and removal of QDs were promoted by enzyme co-incubation (i). […] Release was promoted by hydrolysis for 28 days at 23 °C. […] Oleic acid was used as a positive control of cellular uptake and activity. […] Data points, mean ± s.d. shown [n = 3 independent experiments (a and b); n = 3 biologically independent cells (d and e) and one-way ANOVA with Tukey’s correction; α = 0.05]. a and b created with BioRender.com.

[4] = Blood pharmacokinetics of 14C-INS in mice; format: in vivo, C57BL/6J mice; details: subcutaneous 2 IU kg^–1, 14C-INS in blood, n = 3
Experimental: (§1) For biodistribution studies, the mice were not fasted before either a subcutaneous injection of ^14C-INS (100,000 DPM, 2 IU kg^–1) or a gavage of QD-^14C-INS–CS/GS or ^14C-INS (100,000 DPM, 20 IU kg^–1). Gavage was performed using an oesophageal gavage needle and delivered in a single rapid dose (100 µl). Blood samples were collected from a tail snip (20 µl) over 0–8 h. Mice were euthanized by a single intraperitoneal injection of 100 mg kg^–1 ketamine and 10 mg kg^–1 xylazine in saline at 0.5, 2.0 and 24.0 h post-gavage. Then, 200–250 mg of tissue samples was collected from the liver, spleen, kidneys, lungs, muscles, fat and small intestine (duodenum) along with 100 μl of blood.
(§2) Tissue and blood samples were weighed, mixed with 1 ml solvable solution and incubated at 60 °C for 4 h to dissolve. Then, 0.2 ml of 30% H2O2 was added to reduce the dark colour saturation. […] Samples were mixed with 10 ml scintillation fluid (five measurements per sample). Baseline measurements were collected from control mice (n = 3) that were not treated with radioactive samples. Data were collected and analysed as disintegrations per minute.

[5] = Tissue biodistribution of 14C-INS in mice; format: in vivo, C57BL/6J mice; details: for tissue distribution, in words: SC-INS 2 IU kg^–1 s.c., QD-INS–CS/GS and Oral-INS 20 IU kg^–1 by gavage
Experimental: as §1, §2

NOD/ShiLtJ mice = test: Insulin tolerance test (ITT) in NOD diabetic mice; format: in vivo
Experimental: Ten-week-old female NOD/ShiLtJ mice were obtained from the Animal Resource Centre in Perth. Animals were housed at the ANZAC Research Institute animal house on a 12-h light/dark cycle and provided with ad libitum access to food and water; 20–25 °C; 50–60% relative humidity; and bedding, ventilated caging systems and enrichment as per the ARRIVE guidelines. NOD/ShiLtJ mice were monitored weekly for BG changes, with mice developing T1D between weeks 12 and 24 in 90% of female mice. Diabetic mice were identified following two repeat BG measurements at >11.1 mmol l^–1.
ITT was performed with/without a 4-h fast. BG was measured using a handheld glucometer using Accu-Chek proforma strips. Blood was collected from a tail snip. […] The AUC was determined based on mmol l^–1 × min.

Stability by NMR = format: physicochemical; details: 1 mg/ml in MQ water, 23 °C, 60% humidity with light exposure, 7 and 28 days
Experimental: Individual sample stock was prepared in 90% MQ water and 10% D2O at pH 7. For NMR data acquisition, 550 µl samples from each stock were transferred to a 5 mm NMR tube. All one-dimensional ^1H experiments (water suppression pulse sequence, zgesgp; time domain, 32 K; relaxation delay, 2 s; spectral width, 12.5 ppm; number of scans, 256) were collected on a Bruker 800 MHz spectrometer using a Z-gradient TCI probe at 298 K. Two-dimensional [^1H,^1H] NOESY spectra were collected on a 600 MHz spectrometer with a cryoprobe at 298 K. Data were collected and processed using TopSpin. The water offset was set to 4.697 ppm. Before Fourier transformation from the time domain to the frequency domain, the time-domain data were zero filled twice, and an exponential decay function with a line-broadening factor of 5 Hz was multiplied. Data were processed using TopSpin. For stability measurements, the samples were stored at a lab temperature of ~295 ± 2 K.
Extended Data Fig. 4 NMR characterization and stability of QD-INS–CS/GS and 2D [^1H,^1H]-NOESY NMR characterization of CS/GS. […] Stability of samples were evaluated at 1 mg/ml, in MQ water solution, 23 °C, 60% humidity with light exposure for 7 and 28 days. […] (b) Left panel: 2D [^1H, ^1H]-NOESY spectrum of maltose. Right panel: 2D [^1H, ^1H]-NOESY spectrum of chitosan and glucose (CS/GS) copolymer. […]

STZ-treated rats [6] = test: ITT in STZ-treated rats; format: in vivo, Wistar rats; details: SC-INS 5–40 IU kg^–1; QD-INS–CS/GS 10–150 IU kg^–1; n = 5
Experimental: After a month of acclimation and animal handling, rats were given a single intraperitoneal injection of STZ (65 mg kg^–1) and provided with high-glucose water (10%) for 2 days. Animals were monitored and BG checked for 10 days post-injection. Diabetic rats were identified following two repeat BG measurements at >11.1 mmol l^–1.
ITT was performed as above; rats were treated with 5–40 IU kg^–1 SC-INS or 10–150 IU kg^–1 QD-INS–CS/GS. All the ITT data presented in this manuscript used n = 5 mice per group.

[7] = Appearance and solubility by optical density at pH 3 to 9; format: physicochemical; details: 1 mg/ml solutions (5 mL), pH raised from 3 to 9 with 1 M NaOH, mean of n = 3 independent batches
Experimental: 1 mg/ml solutions (5 mL total volume) were prepared for each solution. pH was adjusted to pH 3 with 1 M HCl using a pH meter. Images were collected as the pH was raised by the addition of 1 M NaOH. Images show the product solution at each pH. […] Data expressed as the mean ± s.d. (n = 3 independent batches). ζ-potential of each sample was measured using DLS. Data expressed as the mean ± s.d. (n = 3 independent batches).

NOD mice = test: Two-week chronic dosing in NOD mice; format: in vivo, NOD/ShiLtJ mice; details: chronic 2-week subcutaneous dosing
Experimental: Early and moderate diabetic mice were given a single treatment of SC-INS (1 IU kg^–1) or QD-INS–CS/GS (25 IU kg^–1), whereas late diabetics were given 4 and 100 IU kg^–1, respectively. An ITT was performed with BG collected at 0.25, 0.50, 0.75 and 1.00 h. […] BG was recorded daily and was maintained below 11.1 mmol l^–1 for the duration of treatment. […] BG was recorded daily and was maintained between 15 and 25 mmol l^–1 for the duration of treatment. […] Data points, mean ± s.d. shown (n = 5 biologically independent animals; one-way ANOVA with Tukey’s correction (a) and two-tailed unpaired t-test; α = 0.05 (c, e and f)).

STZ-treated rats [8] = test: Chronic dosing in STZ-treated rats; format: in vivo, Wistar rats; details: 40 IU kg^–1 day^–1 subcutaneous
Experimental: Rats were maintained on either treatment for 2–6 weeks, with BG measured morning and evening (prior and 1 h post-injection).
Following experimentation, the rats were euthanized by a single intraperitoneal injection of 75 mg kg^–1 ketamine and 10 mg kg^–1 xylazine in saline. Blood, liver and pancreas tissue samples were collected. Plasma was collected and analysed for biochemistry and lipid parameters as above.

[9] = 0.5 h, subcutaneous 2 IU kg^–1, n = 3
[10] = 2 h, subcutaneous 2 IU kg^–1, n = 3

Substance: QD-INS: insulin bound to 3-MPA-capped Ag2S QDs by EDC/NHS chemical crosslinking
- ζ-potential at pH 7 [1]: negative
- ζ-potential between pH 3 and pH 6 ([1]; n = 3 independent batches): near-zero
- effect of constituents on oGTT AUC (C57BL/6J mice): no differences compared to controls
- maximum insulin retention (loading capacity of insulin onto QDs) ([2]; 14C-INS, 10 kDa dialysis, QDs 0.5–35.2 µg ml^–1, insulin 5.0 µg ml^–1, n = 3 batches): 80%
- insulin molecules per QD ([2]; based on the molar ratios): 1–2
- released insulin present as monomer [3]: 87.5%

Substance: insulin human recombinant
- Cmax [4]: 0.1 IU ml^–1
- Tmax [4]: 15 min
- T½ [4]: 15 min
- distribution in the blood [5, 9]: 40%
- distribution in the liver [5, 9]: 40%
- distribution in the muscles/fat [5, 9]: 20%
- distribution in the kidneys [5, 10]: 10%
- distribution in the liver [5, 10]: 50%
- distribution in the small intestine [5, 10]: 20%
- tissue distribution, in words ([5]; listed as Oral-INS): remained in the small intestine
- tissue distribution, in words ([5]; listed as SC-INS): greater distribution in the muscles and fat
- effect of escalating dosage on BG in ITT (NOD/ShiLtJ mice; SC-INS 0–2 IU kg^–1, QD-INS–CS/GS 0–50 IU kg^–1 by gavage): dose-dependent reduction in BG
- time to decrease of BG (NOD/ShiLtJ mice; subcutaneous 1 IU kg^–1): ≤ 15 min
- reduction in ITT AUC (NOD/ShiLtJ mice; subcutaneous 1 IU kg^–1, single dose, n = 5): 40%
- effect of constituents on oGTT AUC (C57BL/6J mice): No effect on AUC
- hypoglycaemia (BG < 3.0 mmol l^–1) (C57BL/6J mice; high dose 5 IU kg^–1 subcutaneous): induced hypoglycaemia
- stability of samples by NMR (Stability by NMR): minimal changes
- dose dependence in ITT (STZ-treated rats [6]): dose-dependent effect
- pH at which the material is insoluble [7]: 5
- time of return of BG to baseline post-treatment (NOD mice): 8 h
- time of return of BG to baseline (STZ-treated rats [8]): ≤ 8 h
